Source: the DeepSol protein solubility set

Experiment: soluble on expression in E. coli; label from the status in PepcDB or PDB records

Sequence | soluble on expression in E. coli
MGSDKIHHHHHHMSALVDPVTDTDLDAYVDDQLDVTRRIEVEAFLSTRPEAAARVMSDLRTRDELRVALAGSKGMARPATADAARRLERGLARGRIFGVLQRSAAVAAFVAAGWLANGIIGPMSVTKVVASPQPPAYVDEAVRAHRTTLVRETMPSQPEAPNYSAGEIRAATAIVMPSLPKDWKVRDVQIYPSRFGPSVEMAVDTKDMGLVSLFAIRPGTFDVVKPTVAPSGDISSAYFQIGEVAYAVVAKSGVRDLDRAAETLARTLY | not soluble
MRGSHHHHHHGSALSNKFIGDDMKMTYHMDGCVNGHYFTVKGEGNGKPYEGTQTSTFKVTMANGGPLAFSFDILSTVFKYGNRCFTAYPTSMPDYFKQAFPDGMSYERTFTYEDGGVATASWEISLKGNCFEHKSTFHGVNFPADGPVMAKKTTGWDPSFEKMTVCDGILKGDVTAFLMLQGGGNYRCQFHTSYKTKKPVTMPPNHVVEHRIARTDLDKGGNSVQLTEHAVAHITSVVPF | soluble
MGSDKIHHHHHHMSLAIVYSRASMGVQAPLVTIEVHLSNGKPGFTLVGLPEKTVKEAQDRVRSALMNAQFKYPAKRITVNLAPADLPKEGGRFDLPIAIGILAASDQLDASHLKQFEFVAELALTGQLRGVHGVIPAILAAQKSKRELIIAKQNANEASLVSDQNTYFAQTLLDVVQFLNGQEKLPLATEIVKESAVNFSGKNTLDLTDIIGQQHAKRALTIAAAGQHNLLFLGPPGTGKTMLASRLTGLLPEMTDLEAIETASVTSLVQNELNFHNWKQRPFRAPHHSASMPALVGGGTIPKPGEISLATNGVLFLDELPEFERKVLDALRQPLESGEIIISRANAKIQFPARFQLVAAMNPSPTGHYTGTHNRTSPQQIMRYLNRLSGPFLDRFDLSIEVPLLPQGSLQNTGDRGETSAQVREKVLKVREIQMERAGKINAYLNSKEIERDCKLNDKDAFFLEKALNKLGLSVRAYHRILKVSRTIADLQGEQQIFQPHLAEALGYRAMVRLLQKLSNM | not soluble
MSTPPAAPLRIALVGDHDPHITAHRAIPLALRLAGEALGLEIAFDWLASDRLPAEPALERYDGFWCVPGSPYRDADAVLRLIAHARGRRRPFLGTCAGFQHTILEFARNALGWQAATHGEEHPHSDQAVIAALPCALLEAREDVRLLRGSRLALAYAADWIEADYHCRYAIAPRFAAELTGGALRASAWSADGAIRAVELEQHPFFVATLFQPERAALAGVLPPLPKAFVEACRTQRRDHPRRGPTPYYAVIFSSHRSAVDDGYAEAAERMLELASRQPGYLGVESVRGANGFGITVSYWDSEAAIRAWSRHAEHRDAQARGRHDWYAGFSARIARVEREYAFPAQPDTAQSPASS | not soluble
MAHRKTTTKNGNGGTLGFEAELFKAADKLRGNMEPSDYKHVALGLIFLKYISDAFEAKHSALLAEDAQAAEDKDEYLAHNVFWVPKQARWSHLKANAKQSTIGTLIDEAMRDIEKDNPSLKHVLPKDYARPALNKVMLGELIDLISGIALNEEGARSKDILGRVYEYFLGQFAGAEGKRGGEFYTPRSVVRVLVQMLEPYSGRVYDPCCGSGGMFVQSEKFVLEHGGRIGDIAIYGQESNYTTWRLAKMNLAVRGIDSDIRWNNEGSFHNDALRDLKADYILANPPFNISDWGGDRLREDVRWKFGVPPAGNANYAWLQHIYHHLAPNGTAGVVLANGSMSSNHSGEGEIRTHMIEADIVDCMIAMPGQLFYSTQIPACLWFLARNKNPGKGLRDRRGQVLLMDARALGVLVDRTRRELTDEHIQQIADTYHAWRGEQGAAAYADVAGFCKSATLEDIRKQGYVLTPGRYVGAVEREDDGEPFPQKMQRLSAQWRAQRAAAAKLDAAIAANLKELGYGG | soluble
MGSDKIHHHHHHMLHATAWRSALFTPTENSATSRDRADCGGIGGMSAAILLSRQGIQVDLVELNPLWAPGGAGITISGPTLRGLREVGVADEVLASGGFWNAVDVCDANSNLTVTVPIAPAVGADELPGVAGIMRTTLAEILGRATRKADTNARLGVTFETLTQDAEGVEVSFNDGSRARYDLVIGADGINSPVRKYVKPEFPGPPFTGQRSWRAVVPRLQENSLMYMGKTTKAGLNPISQTECYLFVLDKREGMDFIAPEQWPMMLAELLEEFGGAVGEFRRGPLDGSLMNHRLLYRPLAGHMINGPWHKGRIVLLGDAVHATTPHLASRAGIAVEGAIVLSEELARRRSLEGAFIAYAGRHYDRARLVVSASGRLGEIERESGSREEHTRIMIETQQALRAPI | not soluble
MAHHHHHHMENIKLGFMGLGQMGSALAHGIANANIIKKENLFYYGPSKKNTTLNYMSSNEELARHCDIIVCAVKPDIAGSVLNNIKPYLSSKLLISICGGLNIGKLEEMVGSENKIVWVMPNTPCLVGEGSFIYCSNKNVNSTDKKYVNDIFNSCGIIHEIKEKDMDIATAISGCGPAYVYLFIESLIDAGVKNGLSRELSKNLVLQTIKGSVEMVKKSDQPVQQLKDNIVSPGGITAVGLYSLEKNSFKYTVMNAVEAACEKSKAMGSK | soluble
APAAVDWRARGAVTAVKDQGQCGSCWAFSAIGNVECQWFLAGHPLTNLSEQMLVSCDKTDSGCSGGLMNNAFEWIVQENNGAVYTEDSYPYASGEGISPPCTTSGHTVGATITGHVELPQDEAQIAAWLAVNGPVAVAVDASSWMTYTGGVMTSCVSEALDHGVLLVGYNDSAAVPYWIIKNSWTTQWGEEGYIRIAKGSNQCLVKEEASSAVVG | soluble
MTKIKIVVIVGPTAVGKTALGISLAKAFNGEIISGDSQQVYRQLDIGTAKATQEEQEAAVHHLIDIREVTESYSAYDFVQDAQKSISDIVSRGKLPIIVGGTGLYLQSLLEGYHLGGQVDQEAVKAYRNELEQLDDHDLYERLQVNNITIEQVNRRRAIRALELAQFADELENAETAYEPLIIGLNDDRQVIYDRINQRVNRMIENGLLEEAKWLYEHYPTVQASRGIGYKELFPYFVGEMTLAEASDQLKQNTRRFAKRQLTWFRNRMAVSFTAITAPDYPQVVHDRVRDFLGQKEKSLEHHHHHH | not soluble
MKHSGYLWAIGKNVWKRWKKRFFVLVQVSQYTFAMCSYREKKAEPQELLQLDGYTVDYTDPQPGLEGGRAFFNAVKEGDTVIFASDDEQDRILWVQAMYRATGQSHKPVPPTQ | soluble
GPGSMYKLPIEAQFNLIEEEFAAIEASTMNPRLYNFTTSNANPTKNRYINVLANEETIFPPTSLTSAPPTTGGSRLSTSGSPPSMASAPSPMKSLTGRAQKIWGVAGQRLFGTRRGGTLPRDVEGNEKFTTGCVTKKYPQWYINANVVDTSVEPVFVASQAPVQECIDDFLAVIYSCEVTLVLMLTELEEAGFVKADRYWPEDSAPADRIESFGSMCVYKDEQDPYTCDAAHELVRRSFYIRPSAASQARAHKIVMYQYVGWPDRGVPDSTESFEELLKIIQGYVMASPAPRVPAAGPESAAHSSIATNSGGDGSTSNTGSGEGSGKLTPPVFVHCSAGIGRTGTLIGAYTAVKLTEAGLLTNTSIRRIVTDMRKARFGMVQRVEQYMFLYMIVLQHMGVDARKFSARMQPRADLYNMRWMEARQKALLGARAAKR | not soluble
MGSDKIHHHHHHMISDTTIRKLVDYISLNACSVNSSGLYNGKSGISLALFETAKCLQDTEIEDKAFSLFQESLIRKTNDYGFENGMSGIGYVLIYLITNKLIDADFEDLFGDQREAIIKHFENIDKQPDKLLVSYKIIYFLFVLDKLQKQDERIYSIIEKIFQGLELYLSLQFFDWKNIYYINSKDYVLQMYEAYLKLVDFCNYKYFSKSLMDSYVTLYSEGRIASSLVRGYYLHSIITKNNMVGFNDVIRDHIRYGQKNINPAILFLDQKINLTGIIENADENRVKIQRIEMDLFEESLERIKRMVRPNCIHVGYQYGLARYLGFCANKKFPLL | not soluble
SNAMKLYIYDHCPFCVKARMIFGLKNIPVELNVLQNDDEATPTRMIGQKMVPILQKDDSRYLPESMDIVHYVDNLDGKPLLTGKRNPAIEEWLRKVNGYVNQLLLPRFAKSAFDEFSTPAARQYFIRKKEASSGSFDNHLAHSAGLIKKIGDDLRLLDKLIVQPNAVNGELSEDDIHLFPLLRNLTLVAGIHWPTKVADYRDNMAKQTQINLLSSMAI | soluble
MSLKAVYIQKTGGPATIIVGSLPVPKVRPKSVLIKVIAASINYVDLFIRSGIYQTDLPNPYILGRDAIGQVVEIGKDVIQFKVGDCVWTNSMGYDGRQGITSEYALIPEERLFLTPKNADSLKLIGAVHSAATATIVLQDIMELKPKQKLLIEGAAGHVGSKLVYLANEMGAEVVTTASLKDFSRLKQLSDAICFDYRDKSLFKKLKSAYPDGFDHIIDTSGEIPLQFNCDLLAPKGVISLITAPKDSQFDSRQFYMNCQQMKGFVISHASLKQLKKAGRILNDAFRQGQLLEEDMVIKKFDKAAEAHDLMETKKENRKIILVEGHHHHHH | not soluble
LQYQPNKLARALTSSGFDAIMVISTRSTKTTAGNPFFSEVLHAITAKAEEEGFDVILQTSHNPAEDLQKCESKIKQKMIKGIIMLSSPADESFFAQLDKYDIPVVVIGKVEGQYAHVYSVDTDNFGDSIALTDALIESGHQNIACLHAPLDVHVSVDRVNGYKQSLAAHNIAVRDEWIVDGGYTHETALKAARQLLSQSPLPEAVFATDSLKLMSIYRAAAEKNIAIPQQLAVVGYSNETLSFILTPAPGGIDVPTQELGQQSCELLFRLISGKPSPQNITVATHMTLK | soluble
MSLTGQAEAPFIRHGYFKFADGVIVSVAEGTPSPEEIDRVEVIDGKGKWVMPGMINTHGHLGMSLLRGHSDDLPLQSWLTEKMWPFEGKMDREAVHHARQLAMAEMIKSGTTTFLEMYHLYMDDLAEAVVEQGPRAVLMRSMIGLCSESEQREKLKEAVTFATTWNGDGNGRITTMMAPHAPYTCPPSFIEMIVDEADRIDLPLHTHMAETQREVEEHRKTYGVHPLVHFEQLGFLKDRHWLLAHCVHLGEEELDILEQHPSVHVSHNPMSNLKLGSGIANVQSMLERGINICLGTDSVASNNHLDLVEEMRIAALLQKGAVLDPTAIPAETAIAMATKNGAKALRLPQVGTIEAGKRADFIMIDPQCLHLQPHEHVMSHLVYALKGADVQDVFVEGAPLMLNKELKTFDEEKLQFEANAHYQRICEKLKEGHHHHHH | not soluble
MLNKRHLPSIAALQCFEAVTRHLSFTRAAEELNLTQSAVSKQVAQLEELVQHLLFQRVRRRLQLTPAGALYLAEVRKILTQIEMSTHFLRSYGGETEVLRVSTPSTFGARWLVPRLKGWRLRHPHIHLDLINEQESDDLLKGRCDVSFYFGQAAIPGAESVKLFGEELVPVCSPDSLPAEPFTDPTQLSELVLLQNAFRPQAWHEWFESQGYHTDHSYHGPRFETFYMCIRAAQVGCGVALLPRFLVEEELAEGKLVIAWDYALPSTNSAYYLSYPEHTADVPKIRVFLQWMLEQLDQPAR | not soluble
MFLDRERELQFLERRYEMGGPEFIVIYGRRRVGKTALLLEFISRHGGIYLLARETSNLENLKRFSDRLSEYFGDDFLKRNPFQNWDAFLEYLNQKATERLVVVIDEFPYLVKGDRSLPSILQEYWDLKLSNGRIFLIICGSSISMMEKLLGYKSPIYGRRTGQINLKPVDFLHAREFLPGYSLEDFIKAYGILGGSPAHLLEFDDSKTIKENLLEYLRSDSLLYQDAFFVLREELEEPRNYFAIMEAVAAGKTSLGEIMNETGLSRATVAKYLSVLIELDFVKREIPITASRKSRRGRYYIKDNYFAFWFRYIHPNIDFIESERRKELLELIIDDLPNYLGGIFENVAIEFLPLISNKLPFKPLKIGRWWHKNEEIDLVAFNEKEEKAILIEVKWKTLNKIEANKILKDLNRKSKILKMKEWEQYHGIIAKRVKDKEKIKGGLIWDLEDIENLKFSPELEHHHHHH | not soluble
